Measurements published in the supplement of paper PMC10065799, “High-throughput profiling of sequence recognition by tyrosine kinases and SH2 domains using bacterial peptide display” (eLife, 2023).

Tests used:
AncSZ = experiment: phosphorylation enrichment, bacterial display (enrichment ratio); higher = better substrate or ligand; peptides without Tyr show the background
EPHB1 = EPHB1 (UniProt P54762); experiment: as above
EPHB2 = EPHB2 (UniProt P29323); experiment: as above
FGFR1 = FGFR1 (UniProt P11362); experiment: as above
FGFR3 = FGFR3 (UniProt P22607); experiment: as above
Fer (mouse) = experiment: as above
Fes = Fes (UniProt P07332); experiment: as above
Fyn = Fyn (UniProt P06241); experiment: as above
Hck = Hck (UniProt P08631); experiment: as above
Jak2 = Jak2 (UniProt O60674); experiment: as above
MERTK = MERTK (UniProt Q12866); experiment: as above
c-Abl (mouse) = experiment: as above
c-Src = experiment: as above
Grb2 SH2 = Grb2 SH2 (UniProt P62993); experiment: SH2 binding enrichment of the phosphorylated peptide, bacterial display (enrichment ratio); higher = better substrate or ligand; peptides without Tyr show the background
SHP2-C SH2 = experiment: as above
c-Src SH2 = experiment: as above
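For SH2 binding enrichment of the phosphorylated peptide, bacterial display in this document: peptide library displayed on the E. coli surface as eCPX fusions, selected cells deep-sequenced, score is each peptide's frequency after selection divided by its frequency in the input.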
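For phosphorylation enrichment, bacterial display in this document: 11-residue human phosphosite peptides and single-mutation variants displayed on the E. coli surface, counted by deep sequencing, each peptide's frequency after selection divided by its frequency in the unselected input library; frequency after pTyr selection over input frequency; kinase dosed for 20-30% of maximal phosphorylation in three min.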

Chain of EPHB1 (P54762 whole entry, looked up): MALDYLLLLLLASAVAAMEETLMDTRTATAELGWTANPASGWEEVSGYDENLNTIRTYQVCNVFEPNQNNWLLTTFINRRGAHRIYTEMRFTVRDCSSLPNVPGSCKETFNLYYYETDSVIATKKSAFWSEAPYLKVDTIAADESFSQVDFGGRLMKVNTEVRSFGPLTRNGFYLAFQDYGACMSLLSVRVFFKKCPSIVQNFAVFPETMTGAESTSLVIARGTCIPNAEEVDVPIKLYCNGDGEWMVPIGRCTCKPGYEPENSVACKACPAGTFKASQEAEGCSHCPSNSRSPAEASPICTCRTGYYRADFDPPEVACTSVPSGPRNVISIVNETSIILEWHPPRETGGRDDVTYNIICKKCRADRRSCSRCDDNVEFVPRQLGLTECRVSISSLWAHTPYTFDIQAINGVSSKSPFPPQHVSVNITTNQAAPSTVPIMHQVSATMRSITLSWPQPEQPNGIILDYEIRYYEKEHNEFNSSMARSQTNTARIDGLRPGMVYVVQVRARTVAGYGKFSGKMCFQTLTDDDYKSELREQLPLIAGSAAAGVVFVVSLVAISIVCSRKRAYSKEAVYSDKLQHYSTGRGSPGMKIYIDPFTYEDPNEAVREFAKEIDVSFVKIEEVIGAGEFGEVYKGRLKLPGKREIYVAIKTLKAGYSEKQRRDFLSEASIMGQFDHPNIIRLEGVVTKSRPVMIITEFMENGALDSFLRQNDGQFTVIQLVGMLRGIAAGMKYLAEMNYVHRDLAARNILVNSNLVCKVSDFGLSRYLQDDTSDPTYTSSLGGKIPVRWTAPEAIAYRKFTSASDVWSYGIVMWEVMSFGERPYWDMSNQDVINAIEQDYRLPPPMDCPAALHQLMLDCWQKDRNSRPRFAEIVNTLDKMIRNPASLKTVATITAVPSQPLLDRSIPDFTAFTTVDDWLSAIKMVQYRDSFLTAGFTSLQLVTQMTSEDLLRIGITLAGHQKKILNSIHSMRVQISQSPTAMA
Chain of FGFR1 (P11362 whole entry, looked up): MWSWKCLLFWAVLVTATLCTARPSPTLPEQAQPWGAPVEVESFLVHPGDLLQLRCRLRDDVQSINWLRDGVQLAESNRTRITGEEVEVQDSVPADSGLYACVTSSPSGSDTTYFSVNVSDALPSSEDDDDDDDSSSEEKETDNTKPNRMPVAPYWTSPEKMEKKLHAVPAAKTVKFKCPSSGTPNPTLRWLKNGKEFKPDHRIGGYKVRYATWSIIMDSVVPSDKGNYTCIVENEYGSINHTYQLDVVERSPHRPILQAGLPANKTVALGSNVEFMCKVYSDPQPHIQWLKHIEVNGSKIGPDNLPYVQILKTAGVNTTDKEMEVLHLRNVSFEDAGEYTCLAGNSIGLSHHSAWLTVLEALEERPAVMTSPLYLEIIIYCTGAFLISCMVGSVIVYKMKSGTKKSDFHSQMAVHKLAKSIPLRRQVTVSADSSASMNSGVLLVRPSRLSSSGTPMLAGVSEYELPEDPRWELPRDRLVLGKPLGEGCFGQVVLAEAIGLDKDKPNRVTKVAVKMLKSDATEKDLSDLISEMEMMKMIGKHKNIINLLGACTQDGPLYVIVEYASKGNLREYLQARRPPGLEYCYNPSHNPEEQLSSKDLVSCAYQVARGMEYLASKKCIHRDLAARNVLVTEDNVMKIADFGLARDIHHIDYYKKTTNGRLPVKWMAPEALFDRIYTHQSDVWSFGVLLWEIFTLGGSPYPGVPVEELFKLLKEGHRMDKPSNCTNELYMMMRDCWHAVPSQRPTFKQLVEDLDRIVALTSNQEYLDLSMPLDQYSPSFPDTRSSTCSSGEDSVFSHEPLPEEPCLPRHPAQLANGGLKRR
Chain of EPHB2 (P29323 whole entry, looked up): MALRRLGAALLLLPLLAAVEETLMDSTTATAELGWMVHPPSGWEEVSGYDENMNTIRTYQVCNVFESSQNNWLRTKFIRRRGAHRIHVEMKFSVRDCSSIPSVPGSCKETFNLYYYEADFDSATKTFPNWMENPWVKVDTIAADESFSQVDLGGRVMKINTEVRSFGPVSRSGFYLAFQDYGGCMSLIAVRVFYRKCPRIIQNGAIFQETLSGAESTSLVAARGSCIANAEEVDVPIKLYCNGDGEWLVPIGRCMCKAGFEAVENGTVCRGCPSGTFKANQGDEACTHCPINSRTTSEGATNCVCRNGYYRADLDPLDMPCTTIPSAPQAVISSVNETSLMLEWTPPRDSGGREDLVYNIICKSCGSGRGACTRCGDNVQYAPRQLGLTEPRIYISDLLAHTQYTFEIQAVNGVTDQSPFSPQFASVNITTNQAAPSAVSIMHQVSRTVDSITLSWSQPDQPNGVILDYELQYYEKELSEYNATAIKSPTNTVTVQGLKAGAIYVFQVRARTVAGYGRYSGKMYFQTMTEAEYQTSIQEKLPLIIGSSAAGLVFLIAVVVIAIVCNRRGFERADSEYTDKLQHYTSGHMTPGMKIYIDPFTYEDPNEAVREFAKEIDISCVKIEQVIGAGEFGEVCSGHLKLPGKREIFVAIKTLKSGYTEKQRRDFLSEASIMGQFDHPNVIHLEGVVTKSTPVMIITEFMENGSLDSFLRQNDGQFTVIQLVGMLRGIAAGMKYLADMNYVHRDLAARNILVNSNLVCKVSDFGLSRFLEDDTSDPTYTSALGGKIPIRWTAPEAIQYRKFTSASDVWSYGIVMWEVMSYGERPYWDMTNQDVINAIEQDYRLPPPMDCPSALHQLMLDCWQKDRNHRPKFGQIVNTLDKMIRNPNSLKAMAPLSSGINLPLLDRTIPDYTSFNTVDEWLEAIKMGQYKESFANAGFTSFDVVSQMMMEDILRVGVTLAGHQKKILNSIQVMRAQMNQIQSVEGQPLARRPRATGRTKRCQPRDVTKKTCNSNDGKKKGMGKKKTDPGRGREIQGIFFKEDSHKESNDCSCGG
Chain of Fes (P07332 whole entry, looked up): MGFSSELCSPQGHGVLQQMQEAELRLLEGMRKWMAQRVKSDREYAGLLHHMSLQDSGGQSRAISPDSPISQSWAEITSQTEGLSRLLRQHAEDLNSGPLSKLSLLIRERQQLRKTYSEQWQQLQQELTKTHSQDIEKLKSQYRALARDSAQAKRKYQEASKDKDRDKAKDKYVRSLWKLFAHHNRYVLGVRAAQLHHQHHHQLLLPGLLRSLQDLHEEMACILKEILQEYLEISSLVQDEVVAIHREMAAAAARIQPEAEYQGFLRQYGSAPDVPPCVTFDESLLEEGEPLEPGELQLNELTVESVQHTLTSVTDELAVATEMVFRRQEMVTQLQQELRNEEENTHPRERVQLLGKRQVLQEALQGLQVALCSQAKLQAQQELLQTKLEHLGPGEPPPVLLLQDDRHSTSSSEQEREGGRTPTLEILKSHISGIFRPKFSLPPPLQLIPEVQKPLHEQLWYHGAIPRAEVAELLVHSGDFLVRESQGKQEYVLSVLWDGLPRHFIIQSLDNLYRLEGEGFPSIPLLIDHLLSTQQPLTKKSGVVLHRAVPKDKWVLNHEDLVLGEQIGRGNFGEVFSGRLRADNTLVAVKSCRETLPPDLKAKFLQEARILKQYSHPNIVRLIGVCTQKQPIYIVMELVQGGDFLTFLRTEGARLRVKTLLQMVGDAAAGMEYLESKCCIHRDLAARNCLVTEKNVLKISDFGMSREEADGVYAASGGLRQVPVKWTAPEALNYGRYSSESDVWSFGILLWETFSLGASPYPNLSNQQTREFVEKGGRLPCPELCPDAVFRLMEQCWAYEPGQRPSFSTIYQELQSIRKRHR
Chain of MERTK (Q12866 whole entry, looked up): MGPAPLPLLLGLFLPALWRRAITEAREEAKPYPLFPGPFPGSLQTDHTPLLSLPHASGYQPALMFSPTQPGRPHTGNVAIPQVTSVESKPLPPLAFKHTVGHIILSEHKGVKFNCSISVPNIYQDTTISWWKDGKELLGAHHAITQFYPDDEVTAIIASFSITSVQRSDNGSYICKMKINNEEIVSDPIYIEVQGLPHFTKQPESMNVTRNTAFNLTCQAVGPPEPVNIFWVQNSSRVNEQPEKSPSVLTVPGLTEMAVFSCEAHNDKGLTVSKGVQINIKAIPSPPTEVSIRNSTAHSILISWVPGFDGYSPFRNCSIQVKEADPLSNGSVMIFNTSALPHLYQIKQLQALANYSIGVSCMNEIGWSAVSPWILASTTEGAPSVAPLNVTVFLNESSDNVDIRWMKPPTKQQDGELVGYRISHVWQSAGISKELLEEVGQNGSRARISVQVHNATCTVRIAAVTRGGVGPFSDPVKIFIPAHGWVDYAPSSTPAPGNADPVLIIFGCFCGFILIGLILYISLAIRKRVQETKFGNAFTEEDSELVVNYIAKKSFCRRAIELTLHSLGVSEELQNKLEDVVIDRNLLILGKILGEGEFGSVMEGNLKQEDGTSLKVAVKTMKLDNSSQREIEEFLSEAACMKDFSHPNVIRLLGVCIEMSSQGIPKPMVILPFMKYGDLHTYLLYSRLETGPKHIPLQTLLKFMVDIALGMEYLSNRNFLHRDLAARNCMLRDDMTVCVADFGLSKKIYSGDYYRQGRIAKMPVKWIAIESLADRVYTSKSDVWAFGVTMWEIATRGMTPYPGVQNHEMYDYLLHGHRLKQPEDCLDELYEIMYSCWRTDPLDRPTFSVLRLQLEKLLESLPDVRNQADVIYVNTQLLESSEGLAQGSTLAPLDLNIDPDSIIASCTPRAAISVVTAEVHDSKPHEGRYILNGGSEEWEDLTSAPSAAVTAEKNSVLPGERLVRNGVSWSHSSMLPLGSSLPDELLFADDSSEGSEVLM
Chain of Grb2 SH2 (P62993 whole entry, looked up): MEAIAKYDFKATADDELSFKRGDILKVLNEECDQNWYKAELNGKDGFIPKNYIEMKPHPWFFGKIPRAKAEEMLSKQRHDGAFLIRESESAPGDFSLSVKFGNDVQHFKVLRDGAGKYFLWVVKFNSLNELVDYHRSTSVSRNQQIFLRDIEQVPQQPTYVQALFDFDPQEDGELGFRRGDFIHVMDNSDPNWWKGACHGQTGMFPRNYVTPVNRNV

Sequence | phosphorylation enrichment (AncSZ) | phosphorylation enrichment (EPHB1) | phosphorylation enrichment (EPHB2) | phosphorylation enrichment (FGFR1) | phosphorylation enrichment (FGFR3) | phosphorylation enrichment (Fer (mouse)) | phosphorylation enrichment (Fes) | phosphorylation enrichment (Fyn) | phosphorylation enrichment (Hck) | phosphorylation enrichment (Jak2) | phosphorylation enrichment (MERTK) | phosphorylation enrichment (c-Abl (mouse)) | phosphorylation enrichment (c-Src) | SH2 binding enrichment (Grb2 SH2) | SH2 binding enrichment (SHP2-C SH2) | SH2 binding enrichment (c-Src SH2)
ILDEAYVMASM [EGFR_Y764_V769M] | 1.22 | 0.461 | 0.553 | 0.525 | 0.62 | 0.557 | 1.19 | 0.539 | 0.528 | 0.965 | 0.447 | 0.746 | 0.643 | 0.66 | 0.633 | 0.424
ILGLEYSLRVP [HELZ2_Y1304] | 1.03 | 0.49 | 0.733 | 0.573 | 0.637 | 0.48 | 1.22 | 0.515 | 0.567 | 1.05 | 0.431 | 0.753 | 0.947 | 0.782 | 0.938 | 0.484
ILTYKYLQKPM [KIT_Y547] | 0.666 | 0.686 | 0.591 | 0.396 | 0.518 | 0.495 | 1.15 | 0.41 | 0.458 | 0.801 | 0.487 | 0.654 | 0.521 | 0.729 | 0.362 | 0.428
INVTIYGKTFR [EFHC1_Y177_I174V] | 1.18 | 0.631 | 0.588 | 0.539 | 0.756 | 0.625 | 1.29 | 0.547 | 0.609 | 1.1 | 0.644 | 0.868 | 0.641 | 0.76 | 0.581 | 0.572
IQTDGYRAPEA [UHMK1_Y197] | 0.601 | 0.782 | 0.496 | 0.447 | 0.382 | 0.461 | 0.829 | 0.428 | 0.717 | 1.25 | 0.491 | 0.725 | 0.398 | 0.763 | 0.727 | 0.505
IRFPPYTDWNQ [ALDH3B2_Y365_H361R_YF] | 0.741 | 0.396 | 0.392 | 0.54 | 0.493 | 0.53 | 0.739 | 0.395 | 0.439 | 0.555 | 0.421 | 0.45 | 0.328 | 0.886 | 0.748 | 0.768
IRFSDYVEVAD [PHACTR1_Y525] | 1.41 | 1.42 | 0.977 | 1.88 | 1.58 | 0.431 | 1.01 | 0.538 | 0.519 | 1.01 | 0.434 | 0.755 | 0.448 | 1.01 | 0.838 | 0.58
IRKTEYPFSSE [ATP2C1_Y452_A450T] | 0.582 | 0.426 | 0.397 | 0.466 | 0.449 | 0.339 | 0.837 | 0.401 | 0.405 | 0.599 | 0.348 | 0.549 | 0.428 | 0.928 | 0.807 | 0.587
IRNRDYDDIDD [TTYH2_Y424_T419I] | 1.07 | 0.466 | 0.575 | 0.7 | 0.676 | 0.494 | 0.887 | 0.594 | 0.515 | 0.676 | 0.541 | 0.649 | 0.491 | 0.628 | 0.486 | 0.537
IRTIDYRYTVW [IDS_Y497] | 1.15 | 0.666 | 0.566 | 0.554 | 0.732 | 0.57 | 1.16 | 0.493 | 0.535 | 0.929 | 0.422 | 0.695 | 0.398 | 1.04 | 1.31 | 0.985
ISIFYYAKGQP [MPZ_Y82_H81Y] | 1.38 | 0.532 | 0.61 | 0.563 | 0.674 | 0.496 | 1.72 | 0.52 | 0.429 | 1.36 | 0.504 | 1.19 | 0.649 | 0.78 | 0.656 | 0.409
ISSLLYELLEE [TRPC6_Y896_R895L] | 1.94 | 7.24 | 4.5 | 0.953 | 1.35 | 7.37 | 1.94 | 2.14 | 3.25 | 1.21 | 6.1 | 1.31 | 3.33 | 1.04 | 0.619 | 0.576
ITLPIYTKESE [ANK2_Y1455] | 0.961 | 0.641 | 0.499 | 0.722 | 0.76 | 0.485 | 1.19 | 0.88 | 0.907 | 1.11 | 1.75 | 0.848 | 0.974 | 0.845 | 0.72 | 0.515
ITNLLYHVVGG [GBA_Y412_W417G] | 1.18 | 5.68 | 3.36 | 6.43 | 5.48 | 1.32 | 1.12 | 5.17 | 5.76 | 2.67 | 7.37 | 1.12 | 3.81 | 1.07 | 1.12 | 0.953
ITNVLYHVVGW [GBA_Y412_L410V] | 1.06 | 2.31 | 1.32 | 6.43 | 5.06 | 1.82 | 1.25 | 3.01 | 4.59 | 1.87 | 6.81 | 4.13 | 3.13 | 1.78 | 1.24 | 1.27
ITVPAYFNDSQ [HSPA9_Y196] | 0.895 | 0.473 | 0.491 | 0.581 | 0.672 | 0.54 | 1.06 | 0.553 | 0.528 | 1.02 | 0.456 | 0.785 | 0.536 | 1.08 | 0.878 | 0.498
IVFTSYFLTIL [TAS2R16_Y239] | 1.45 | 0.676 | 0.709 | 0.641 | 0.976 | 0.511 | 1.89 | 0.578 | 0.633 | 1.76 | 0.476 | 1.05 | 0.514 | 0.918 | 0.955 | 0.897
IYQASYYRRGD [LTK_Y676_R673Q] | 0.822 | 0.659 | 0.66 | 0.479 | 0.473 | 1.43 | 0.695 | 7.6 | 10.6 | 0.528 | 6.37 | 11.5 | 6.2 | 0.628 | 0.742 | 0.412
KAEELYIGVTV [EFHC2_Y509] | 2.15 | 0.921 | 0.772 | 2.35 | 2.33 | 5.31 | 1.35 | 2.06 | 2.75 | 0.966 | 1.42 | 0.988 | 2.2 | 0.648 | 0.756 | 0.411
KALKQYRASPS [DDX27_Y763_G766S] | 0.411 | 0.312 | 0.344 | 0.328 | 0.309 | 0.368 | 0.423 | 0.373 | 0.318 | 0.439 | 0.401 | 0.552 | 0.43 | 0.801 | 0.691 | 0.537
KANEFYPVVII [ADAMTS18_Y765_L769I_YF] | 1.03 | 0.411 | 0.695 | 1.9 | 1.26 | 0.456 | 1.16 | 0.458 | 0.458 | 1.06 | 0.386 | 0.663 | 0.478 | 0.626 | 0.597 | 0.349
KAPPTYDTVLQ [CYP3A4_Y347] | 0.686 | 6.72 | 7.86 | 0.36 | 0.483 | 2.09 | 0.735 | 2.46 | 2.98 | 0.576 | 1.89 | 0.663 | 1.44 | 0.887 | 0.556 | 2.28
KCCCIYEKPRS [PPP1R11_Y64_A69S] | 1.86 | 1.03 | 0.892 | 0.456 | 0.667 | 7.18 | 1.01 | 2.07 | 2.45 | 0.642 | 1.17 | 3.97 | 3.04 | 0.708 | 0.685 | 0.602
KDAGDYKYKAK [LRIT3_Y326_C328Y] | 0.398 | 0.353 | 0.366 | 0.337 | 0.387 | 0.256 | 0.604 | 0.308 | 0.346 | 0.519 | 0.32 | 0.571 | 0.319 | 0.68 | 0.515 | 0.415
KDDEKYLDVIR [MTM1_Y260] | 0.961 | 0.461 | 0.49 | 0.453 | 0.663 | 0.405 | 0.971 | 0.433 | 0.501 | 0.987 | 0.434 | 0.689 | 0.409 | 0.874 | 0.64 | 0.515
KDGNGYISAAE [CALM1_Y100] | 0.646 | 0.394 | 0.491 | 0.477 | 0.594 | 0.389 | 0.76 | 0.463 | 0.542 | 0.685 | 0.47 | 0.546 | 0.416 | 0.742 | 0.746 | 0.571
KDQGIYEDYVE [MYL6_Y86_T85I] | 1.2 | 0.74 | 0.853 | 0.58 | 0.672 | 1.03 | 1.08 | 2.05 | 1.06 | 0.936 | 0.489 | 0.851 | 2.02 | 0.899 | 0.905 | 0.535
KEDPEYKKKFR [FAM161A_Y278_E273K] | 0.749 | 0.499 | 0.589 | 0.534 | 0.6 | 0.455 | 1.07 | 0.34 | 0.477 | 1.02 | 0.433 | 0.824 | 0.502 | 0.921 | 0.873 | 0.513
KELAKYYKLHH [AK7_Y390_N389K] | 0.472 | 0.366 | 0.363 | 0.377 | 0.418 | 0.383 | 0.472 | 0.35 | 0.39 | 0.379 | 0.422 | 0.46 | 0.439 | 1.01 | 0.622 | 0.782
